This note sets out measurements from article PMC8391104, “Molecular mechanism of Mad1 kinetochore targeting by phosphorylated Bub1” (EMBO Reports, 2021).

The target of one assay is Mad1 CTD, 597-718 (UniProt Q9Y6D9). Nature of the assay: 1H,15N HSQC titration of 15N-Mad1CTD. The settings on record: reference: non-phosphorylated peptide; sites S459,T461.
Assay [1] concerns the target Mad1 C-terminal domain (Mad1^CTD) homodimer, residues 597-718 (human) (UniProt Q9Y6D9). The experiment in a line: NMR titration; 1H,15N 2D HSQC of 15N-labelled Mad1^CTD with unlabelled peptide added (dimer to peptide 1:0.5 to 1:4); 50 mM HEPES pH 7.0, 100 mM NaCl, 2 mM TCEP, 0.02% NaN3, 298 K.
Assay [2] has the same target. Nature of the assay: ITC; Bub1^CD1 peptide (0.3-1.5 mM) titrated into Mad1 (30-100 µM) in the cell; 20°C; 20 mM HEPES pH 7.5, 100 mM NaCl, 1 mM TCEP; single-site model; stoichiometry counted on dimeric Mad1^CTD.
Assay [3] shares this target. Nature of the assay: NMR titration; 31P 1D spectra of phosphorylated Bub1^CD1 peptide with Mad1^CTD dimer at 1:1 and 1:2 dimer to peptide, around 0.25 to 0.5 mM of each; 50 mM HEPES pH 7.0, 100 mM NaCl, 2 mM TCEP, 0.02% NaN3, 298 K.
The target is the same in assay [4]. The experiment in a line: crystal structure; co-crystallisation of Mad1^CTD (0.35 mM) with Bub1^CD1 peptide at 2.5 mM in 5% DMSO (or 5 mM in 10% DMSO); 10% isopropanol, 0.1 M Na HEPES pH 7.5, 20% PEG 4000; 21°C.

Sequence of Mad1 C-terminal domain (Mad1^CTD) homodimer, residues 597-718 (human) (Q9Y6D9 597-718): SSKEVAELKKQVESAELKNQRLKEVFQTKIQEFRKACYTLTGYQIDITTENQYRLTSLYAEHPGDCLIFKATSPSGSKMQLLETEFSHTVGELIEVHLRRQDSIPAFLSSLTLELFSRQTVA

For “Bub1 CD1, 455-479 (from UniProt O43683) phosphorylated peptide”, in the assay with Mad1 CTD, 597-718, the “binding against the reference” value is on record as “gained”.
What is called Kd is the constant that tells how readily two partners part at equilibrium. The low end stands for tighter binding, the high end for weaker binding. For “doubly phosphorylated Bub1^CD1 peptide (pSer459-pThr461)”, the stoichiometry N (peptide per Mad1^CTD dimer) in assay [1] turned out to be 1. In addition, in assay [2], the Kd was found to be 2700 nM and the stoichiometry N (peptide per Mad1 dimer) came out at 1. For the same substance, the stoichiometry N (peptide per Mad1^CTD dimer) in assay [3] is 1. This substance also registered a stoichiometry N (peptides per Mad1^CTD homodimer) in assay [4] of 2.
In assay [2], “singly phosphorylated Bub1^CD1 peptide (pThr461)” returned a Kd of 3300 nM.
